Experimental findings from patent EP2468776 are described below.

The assay has as its target T1, Slit2-His (UniProt O94813).
T1 chain: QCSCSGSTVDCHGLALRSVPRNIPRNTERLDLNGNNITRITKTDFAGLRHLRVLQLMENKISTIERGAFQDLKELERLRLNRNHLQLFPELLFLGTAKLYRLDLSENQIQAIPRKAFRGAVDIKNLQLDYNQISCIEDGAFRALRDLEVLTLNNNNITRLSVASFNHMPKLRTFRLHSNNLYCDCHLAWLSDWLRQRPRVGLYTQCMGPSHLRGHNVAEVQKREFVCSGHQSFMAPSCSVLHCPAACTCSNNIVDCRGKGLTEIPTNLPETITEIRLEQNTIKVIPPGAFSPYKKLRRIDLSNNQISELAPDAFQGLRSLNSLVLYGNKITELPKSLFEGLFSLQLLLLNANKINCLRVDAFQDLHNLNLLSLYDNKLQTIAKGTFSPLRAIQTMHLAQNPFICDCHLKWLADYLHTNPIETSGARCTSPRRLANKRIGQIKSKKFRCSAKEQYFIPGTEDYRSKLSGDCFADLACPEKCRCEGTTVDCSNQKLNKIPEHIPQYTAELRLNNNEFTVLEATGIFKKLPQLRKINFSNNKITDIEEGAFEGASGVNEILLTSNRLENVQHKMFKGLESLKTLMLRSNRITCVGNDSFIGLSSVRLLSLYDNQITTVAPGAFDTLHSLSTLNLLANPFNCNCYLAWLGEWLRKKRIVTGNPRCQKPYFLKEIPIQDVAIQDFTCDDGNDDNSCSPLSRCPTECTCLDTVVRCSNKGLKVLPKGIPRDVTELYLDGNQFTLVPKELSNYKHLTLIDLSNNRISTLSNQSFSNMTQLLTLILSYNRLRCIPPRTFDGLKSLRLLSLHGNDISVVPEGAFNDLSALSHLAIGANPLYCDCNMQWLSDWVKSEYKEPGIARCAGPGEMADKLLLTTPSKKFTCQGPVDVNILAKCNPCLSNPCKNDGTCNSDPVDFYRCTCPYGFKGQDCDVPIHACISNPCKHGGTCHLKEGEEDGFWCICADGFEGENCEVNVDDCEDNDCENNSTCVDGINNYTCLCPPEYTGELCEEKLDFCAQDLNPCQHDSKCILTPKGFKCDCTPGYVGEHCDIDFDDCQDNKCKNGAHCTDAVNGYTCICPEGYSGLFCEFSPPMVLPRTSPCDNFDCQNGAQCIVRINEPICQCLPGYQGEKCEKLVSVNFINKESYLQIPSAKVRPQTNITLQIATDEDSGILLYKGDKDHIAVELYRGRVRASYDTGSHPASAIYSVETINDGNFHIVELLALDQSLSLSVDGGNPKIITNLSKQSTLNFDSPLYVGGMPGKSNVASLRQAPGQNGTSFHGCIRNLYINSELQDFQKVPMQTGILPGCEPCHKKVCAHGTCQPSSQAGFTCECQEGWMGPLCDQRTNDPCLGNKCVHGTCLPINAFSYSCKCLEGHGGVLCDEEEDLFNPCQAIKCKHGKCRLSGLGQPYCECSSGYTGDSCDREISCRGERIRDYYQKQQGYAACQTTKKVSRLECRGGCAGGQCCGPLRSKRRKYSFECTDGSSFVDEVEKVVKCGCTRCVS
Kind of assay: SPR. For orientation: Surface plasmon resonance follows binding to a sensor surface in real time, without labels.

B1: Robo4-Fc (protein)
chain: QDSPPQILVHPQDQLFQGPGPARMSCQASGQPPPTIRWLLNGQPLSMVPPDPHHLLPDGTLLLLQPPARGHAHDGQALSTDLGVYTCEASNRLGTAVSRGARLSVAVLREDFQIQPRDMVAVVGEQFTLECGPPWGHPEPTVSWWKDGKPLALQPGRHTVSGGSLLMARAEKSDEGTYMCVATNSAGHRESRAARVSIQEPQDYTEPVELLAVRIQLENVTLLNPDPAEGPKPRPAVWLSWKVSGPAAPAQSYTALFRTQTAPGGQGAPWAEELLAGWQSAELGGLHWGQDYEFKVRPSSGRARGPDSNVLLLRLPEKVPSAPPQEVTLKPGNGTVFVSWVPPPAENHNGIIRGYQVWSLGNTSLPPANWTVVGEQTQLEIATHMPGSYCVQVAAVTGAGAGEPSRPVCLLLEQAMERATQEPSEHGPWTLEQLRATLKRPEVIATCGVALWLLLLGTAVCIHRRRRARVHLGPGLYRYTSEDAILKHRMDHSDSQWLADTWRSTSGSRDLSSSSSLSSRLGADARDPLDCRRSLLSWDSRSPGVPLLPDTSTFYGSLIAELPSSTPARPSPQVPAVRRLPPQLAQLSSPCSSSDSLCSRRGLSSPRLSLAPAEAWKAKKKQELQHANSSPLLRGSHSLELRACELGNRGSKNLSQSPGAVPQALVAWRALGPKLLSSSNELVTRHLPPAPLFPHETPPTQSQQTQPPVAPQAPSSILLPAAPIPILSPCSPPSPQASSLSGPSPASSRLSSSSLSSLGEDQDSVLTPEEVALCLELSEGEETPRNSVSPMPRAPSPPTTYGYISVPTASEFTDMGRTGGGVGPKGGVLLCPPRPCLTPTPSEGSLANGWGSASEDNAASARASLVSSSDGSFLADAHFARALAVAVDSFGFGLEPREADCVFIDASSPPSPRDEIFLTPNLSLPLWEWRPDWLEDMEVSHTQRLGRGMPPWPPDSQISSQRSQLHCRMPKAGASPVDYS
For the molecule B1, the binding result is reported as “no binding”.
